Test results: PMC6032869 (Allergy, 2018)

Assays:
[1] = molecular target: T1, recombinant Bet v 1, major birch pollen allergen (Betula pendula (B. verrucosa), UniProt P15494); test: cell-based or functional assay
[2] = molecular target: T2, bovine serum albumin (Bos taurus, UniProt P02769); test: ELISA; allergens, fragments, peptides or BSA coated at 4 ug/mL in 1xPBS; blocked with 1xPBS/3% BSA; 1 ug/mL H3-1 added; bound ScFv traced with anti-E Tag antibody; conditions: both partners purified
T2 construct: bovine serum albumin, control protein; also called BSA

[3] = molecular target: T3, synthetic Bet v 1-derived peptide 5 (aa 130-160) (Betula pendula, UniProt P15494); test: as above; conditions: both partners purified
T3 construct: Bet v 1, birch, Swissprot P15494, C-terminal peptide aa 130-160; also called C-terminal peptide 5; source: synthetic peptide
T3 chain: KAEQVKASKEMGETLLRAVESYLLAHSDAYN

[4] = molecular target: T4, Mal d 1, Bet v 1-related allergen from apple (Malus domestica, UniProt Q9SYW3); test: SPR; Biacore 2000, 25°C; allergens amine-coupled to CM5 chip; reference cell BSA; H3-1 in HBS-EP pH 7.4 injected in twofold increasing concentrations at 30 uL/min; 1:1 interaction model; conditions: both partners purified
T4 construct: Mal d 1, apple allergen, Swissprot Q9SYW3; source: recombinant; materials described in Data S1

[5] = molecular target: T1, recombinant Bet v 1, major birch pollen …; test: as above; conditions: both partners purified
[6] = molecular target: T5, Cor a 1, Bet v 1-related allergen from hazel (Corylus avellana, UniProt Q08407); test: as above; conditions: both partners purified
T5 construct: Cor a 1, hazel allergen, Swissprot Q08407; source: recombinant; materials described in Data S1

[7] = molecular target: T6, Aln g 1, Bet v 1-related allergen from alder (Alnus glutinosa, UniProt P38948); test: as above; conditions: both partners purified
T6 construct: Aln g 1, alder pollen allergen, Swissprot P38948; source: recombinant; materials described in Data S1

[8] = molecular target: T4, Mal d 1, Bet v 1-related allergen from …; test: ELISA; inhibition ELISA: plate-bound allergen (1 ug/mL) pre-incubated with 20 ug/mL H3-1 or control ScFv, then sera of birch pollen-allergic patients diluted 1:5; bound IgE detected; % reduction against control ScFv; conditions: both partners purified
[9] = molecular target: T1, recombinant Bet v 1, major birch pollen …; test: as above; conditions: both partners purified
[10] = molecular target: T5, Cor a 1, Bet v 1-related allergen from …; test: as above; conditions: both partners purified
Target sequence in this assay (Q08407 whole entry, looked up): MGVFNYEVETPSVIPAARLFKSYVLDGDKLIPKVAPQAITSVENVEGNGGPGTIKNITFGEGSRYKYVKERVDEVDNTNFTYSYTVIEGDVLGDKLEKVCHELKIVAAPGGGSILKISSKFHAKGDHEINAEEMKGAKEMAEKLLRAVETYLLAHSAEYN

[11] = molecular target: T6, Aln g 1, Bet v 1-related allergen from …; test: as above; conditions: both partners purified
Target sequence in this assay (P38948 whole entry, looked up): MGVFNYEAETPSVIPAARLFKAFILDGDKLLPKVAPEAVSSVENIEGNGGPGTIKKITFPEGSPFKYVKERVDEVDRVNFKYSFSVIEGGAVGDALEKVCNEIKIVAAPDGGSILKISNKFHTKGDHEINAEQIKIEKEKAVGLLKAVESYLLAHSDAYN

[12] = molecular target: T4, Mal d 1, Bet v 1-related allergen from …; test: as above; conditions: both partners purified; remark: listed apart in the source
[13] = molecular target: T5, Cor a 1, Bet v 1-related allergen from …; test: as above; conditions: both partners purified; remark: listed apart in the source
Target sequence in this assay (Q08407 whole entry, looked up): as the sequence (Q08407 whole entry, looked up) above

[14] = molecular target: T6, Aln g 1, Bet v 1-related allergen from …; test: as above; conditions: both partners purified; remark: listed apart in the source
Target sequence in this assay (P38948 whole entry, looked up): as the sequence (P38948 whole entry, looked up) above

T4 sequence (Q9SYW3 entry or part of it): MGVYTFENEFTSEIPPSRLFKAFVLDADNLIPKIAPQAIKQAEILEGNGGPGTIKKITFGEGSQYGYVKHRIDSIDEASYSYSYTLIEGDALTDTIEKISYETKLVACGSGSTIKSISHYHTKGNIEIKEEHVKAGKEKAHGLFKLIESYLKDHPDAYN
T2 sequence (P02769 25-607): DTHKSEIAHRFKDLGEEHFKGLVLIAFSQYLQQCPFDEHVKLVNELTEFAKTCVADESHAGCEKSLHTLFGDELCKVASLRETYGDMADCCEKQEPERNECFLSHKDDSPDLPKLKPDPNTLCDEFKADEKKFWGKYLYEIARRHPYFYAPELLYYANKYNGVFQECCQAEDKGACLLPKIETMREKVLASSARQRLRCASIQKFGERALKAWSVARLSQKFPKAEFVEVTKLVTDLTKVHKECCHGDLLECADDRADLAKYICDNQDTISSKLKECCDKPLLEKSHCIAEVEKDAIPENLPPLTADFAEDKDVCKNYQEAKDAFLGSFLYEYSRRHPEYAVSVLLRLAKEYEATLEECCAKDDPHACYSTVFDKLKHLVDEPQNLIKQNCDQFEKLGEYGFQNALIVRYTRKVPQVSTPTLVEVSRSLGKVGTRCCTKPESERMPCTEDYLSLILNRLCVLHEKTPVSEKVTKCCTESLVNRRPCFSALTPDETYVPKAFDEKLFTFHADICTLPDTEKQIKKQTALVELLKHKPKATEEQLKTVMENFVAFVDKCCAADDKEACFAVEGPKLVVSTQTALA

B1: Bet v 1-specific IgG-derived ScFv H3-1 (scFv, V domains shown)
VH: QVQLVQSGAEVKKPGSSVKVSCKASGGTFSSYAISWVRQAPGQGLEWMGRIIPILGIVNYAQKFQGRVTITADKSTSTAYMELSSLRSEDTAVYYCAREPLGYCSGGSCYPLHNGMDVWGQGTTVTVSS
VL: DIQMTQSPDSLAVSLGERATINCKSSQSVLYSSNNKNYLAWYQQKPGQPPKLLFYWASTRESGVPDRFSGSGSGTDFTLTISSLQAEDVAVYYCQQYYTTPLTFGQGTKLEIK
notes: VH of H3-1 (H3-1_HV); (Gly4Ser)3 linker; V kappa of H3-1 (H3-1_KV); Cloned in phagemid pCANTAB 5E; The E tag is named for the direct ELISA (detection with anti-E Tag antibody); A form with a C-terminal His tag was also constructed; also called ScFv (clone H3-1); H3-1 ScFv; source: also tested as soluble ScFv after conversion of phage clones; not shown: E tag, C-terminal, kept
Bet v 1-induced basophil activation (CD203c upregulation), blood of patient #12; Bet v 1 pre-incubated with H3-1 against control ScFv [1]: ~5 fold
Bet v 1-induced basophil activation (CD203c upregulation), blood of patient #14; Bet v 1 pre-incubated with H3-1 against control ScFv; augmentation, not reduction [1]: ~5 fold
Bet v 1-induced basophil activation (CD203c upregulation), blood of patient #22; Bet v 1 pre-incubated with H3-1 against control ScFv [1]: ~25 fold
Bet v 1-induced basophil activation (CD203c upregulation), blood of patient #26; Bet v 1 pre-incubated with H3-1 against control ScFv [1]: ~5 fold
binding result [2]: no binding (tested: 1 μg/mL H3-1)
binding result [3]: binds
Kd [4]: 2.57 nM
koff [4]: 0.000145 s⁻¹
kon [4]: 56400 M⁻¹ s⁻¹
Kd [5]: 0.622 nM
koff [5]: 0.00022 s⁻¹
kon [5]: 353000 M⁻¹ s⁻¹
Kd [6]: 6.83 nM
koff [6]: 0.000299 s⁻¹
kon [6]: 43800 M⁻¹ s⁻¹
Kd [7]: 2.96 nM
koff [7]: 0.00112 s⁻¹
kon [7]: 378000 M⁻¹ s⁻¹
% inhibition of IgE binding, patient 1 [8]: 8.6%
% inhibition of IgE binding, patient 5 [8]: 3.6%
% inhibition of IgE binding, patient 9 [8]: 10.9%
% inhibition of IgE binding, patient 10 [8]: 10.5%
% inhibition of IgE binding, patient 11 [8]: 19.1%
% inhibition of IgE binding, patient 12 [8]: 22.4%
% inhibition of IgE binding, patient 13 [8]: 27.4%
% inhibition of IgE binding, patient 16 [8]: 2.3%
% inhibition of IgE binding, patient 17 [8]: 40.5%
% inhibition of IgE binding, patient 18 [8]: 17.1%
% inhibition of IgE binding, patient 19 [8]: 15.3%
% inhibition of IgE binding, patient 20 [8]: 16.5%
% inhibition of IgE binding, patient 21 [8]: 11.9%
% inhibition of IgE binding, patient 22 [8]: 26.3%
% inhibition of IgE binding, patient 23 [8]: 3%
% inhibition of IgE binding, patient 24 [8]: 19.3%
% inhibition of IgE binding, patient 25 [8]: 17.9%
% inhibition of IgE binding, patient 26 [8]: 19.7%
% inhibition of IgE binding, patient 27 [8]: 27.4%
% inhibition of IgE binding, patient 28 [8]: 8.2%
% inhibition of IgE binding, patient 29 [8]: 22.5%
mean % inhibition of patients' IgE binding [8]: 16.1%
% inhibition of IgE binding, patient 1 [9]: 60.9%
% inhibition of IgE binding, patient 5 [9]: 27.6%
% inhibition of IgE binding, patient 7 [9]: 42.2%
% inhibition of IgE binding, patient 9 [9]: 52.8%
% inhibition of IgE binding, patient 10 [9]: 41.7%
% inhibition of IgE binding, patient 11 [9]: 51.3%
% inhibition of IgE binding, patient 12 [9]: 61.4%
% inhibition of IgE binding, patient 13 [9]: 50.5%
% inhibition of IgE binding, patient 16 [9]: 49.2%
% inhibition of IgE binding, patient 17 [9]: 51%
% inhibition of IgE binding, patient 18 [9]: 57.4%
% inhibition of IgE binding, patient 19 [9]: 54.6%
% inhibition of IgE binding, patient 20 [9]: 15.8%
% inhibition of IgE binding, patient 21 [9]: 44.9%
% inhibition of IgE binding, patient 22 [9]: 62.9%
% inhibition of IgE binding, patient 23 [9]: 47.3%
% inhibition of IgE binding, patient 24 [9]: 44.3%
% inhibition of IgE binding, patient 25 [9]: 62.9%
% inhibition of IgE binding, patient 26 [9]: 50.6%
% inhibition of IgE binding, patient 27 [9]: 62.1%
% inhibition of IgE binding, patient 29 [9]: 38.8%
% inhibition of IgE binding, patient 30 [9]: 56.8%
mean % inhibition of patients' IgE binding [9]: 45%
% inhibition of IgE binding, patient 1 [10]: 32.7%
% inhibition of IgE binding, patient 5 [10]: 29%
% inhibition of IgE binding, patient 7 [10]: 19%
% inhibition of IgE binding, patient 9 [10]: 48.9%
% inhibition of IgE binding, patient 10 [10]: 8.6%
% inhibition of IgE binding, patient 12 [10]: 44.9%
% inhibition of IgE binding, patient 13 [10]: 35%
% inhibition of IgE binding, patient 16 [10]: 18.4%
% inhibition of IgE binding, patient 17 [10]: 43%
% inhibition of IgE binding, patient 18 [10]: 40.9%
% inhibition of IgE binding, patient 19 [10]: 33.6%
% inhibition of IgE binding, patient 20 [10]: 33.9%
% inhibition of IgE binding, patient 21 [10]: 6%
% inhibition of IgE binding, patient 22 [10]: 53.7%
% inhibition of IgE binding, patient 23 [10]: 21.1%
% inhibition of IgE binding, patient 24 [10]: 36%
% inhibition of IgE binding, patient 25 [10]: 57.6%
% inhibition of IgE binding, patient 26 [10]: 22%
% inhibition of IgE binding, patient 27 [10]: 31.2%
% inhibition of IgE binding, patient 28 [10]: 45.1%
% inhibition of IgE binding, patient 29 [10]: 39.6%
% inhibition of IgE binding, patient 30 [10]: 29.5%
mean % inhibition of patients' IgE binding [10]: 29.1%
% inhibition of IgE binding, patient 1 [11]: 8.2%
% inhibition of IgE binding, patient 7 [11]: 6.3%
% inhibition of IgE binding, patient 9 [11]: 15.3%
% inhibition of IgE binding, patient 11 [11]: 22.5%
% inhibition of IgE binding, patient 12 [11]: 14.5%
% inhibition of IgE binding, patient 13 [11]: 11.4%
% inhibition of IgE binding, patient 16 [11]: 16.3%
% inhibition of IgE binding, patient 17 [11]: 25%
% inhibition of IgE binding, patient 19 [11]: 16.5%
% inhibition of IgE binding, patient 20 [11]: 6.9%
% inhibition of IgE binding, patient 21 [11]: 13.4%
% inhibition of IgE binding, patient 22 [11]: 37.1%
% inhibition of IgE binding, patient 23 [11]: 6.2%
% inhibition of IgE binding, patient 24 [11]: 12.9%
% inhibition of IgE binding, patient 25 [11]: 17.5%
% inhibition of IgE binding, patient 26 [11]: 23.7%
% inhibition of IgE binding, patient 27 [11]: 26.1%
% inhibition of IgE binding, patient 28 [11]: 26.1%
% inhibition of IgE binding, patient 30 [11]: 10.7%
mean % inhibition of patients' IgE binding [11]: 13.2%
mean % inhibition of patients' IgE binding [12]: 13.5%
mean % inhibition of patients' IgE binding [13]: 24.3%
mean % inhibition of patients' IgE binding [14]: 11.9%
